In IntAct's records for PubMed 22139370:

B1: Cryptochrome-2 (Arabidopsis thaliana (Mouse-ear cress)), Q96524 (parent)
chain: MKMDKKTIVWFRRDLRIEDNPALAAAAHEGSVFPVFIWCPEEEGQFYPGRASRWWMKQSLAHLSQSLKALGSDLTLIKTHNTISAILDCIRVTGATKVVFNHLYDPVSLVRDHTVKEKLVERGISVQSYNGDLLYEPWEIYCEKGKPFTSFNSYWKKCLDMSIESVMLPPPWRLMPITAAAEAIWACSIEELGLENEAEKPSNALLTRAWSPGWSNADKLLNEFIEKQLIDYAKNSKKVVGNSTSLLSPYLHFGEISVRHVFQCARMKQIIWARDKNSEGEESADLFLRGIGLREYSRYICFNFPFTHEQSLLSHLRFFPWDADVDKFKAWRQGRTGYPLVDAGMRELWATGWMHNRIRVIVSSFAVKFLLLPWKWGMKYFWDTLLDADLECDILGWQYISGSIPDGHELDRLDNPALQGAKYDPEGEYIRQWLPELARLPTEWIHHPWDAPLTVLKASGVELGTNYAKPIVDIDTARELLAKAISRTREAQIMIGAAPDEIVADSFEALGANTIKEPGLCPSVSSNDQQVPSAVRYNGSKRVKPEEEEERDMKKSRGFDERELFSTAESSSSSSVFFVSQSCSLASEGKNLEGIQDSSDQITTSLGKNGCK
partner: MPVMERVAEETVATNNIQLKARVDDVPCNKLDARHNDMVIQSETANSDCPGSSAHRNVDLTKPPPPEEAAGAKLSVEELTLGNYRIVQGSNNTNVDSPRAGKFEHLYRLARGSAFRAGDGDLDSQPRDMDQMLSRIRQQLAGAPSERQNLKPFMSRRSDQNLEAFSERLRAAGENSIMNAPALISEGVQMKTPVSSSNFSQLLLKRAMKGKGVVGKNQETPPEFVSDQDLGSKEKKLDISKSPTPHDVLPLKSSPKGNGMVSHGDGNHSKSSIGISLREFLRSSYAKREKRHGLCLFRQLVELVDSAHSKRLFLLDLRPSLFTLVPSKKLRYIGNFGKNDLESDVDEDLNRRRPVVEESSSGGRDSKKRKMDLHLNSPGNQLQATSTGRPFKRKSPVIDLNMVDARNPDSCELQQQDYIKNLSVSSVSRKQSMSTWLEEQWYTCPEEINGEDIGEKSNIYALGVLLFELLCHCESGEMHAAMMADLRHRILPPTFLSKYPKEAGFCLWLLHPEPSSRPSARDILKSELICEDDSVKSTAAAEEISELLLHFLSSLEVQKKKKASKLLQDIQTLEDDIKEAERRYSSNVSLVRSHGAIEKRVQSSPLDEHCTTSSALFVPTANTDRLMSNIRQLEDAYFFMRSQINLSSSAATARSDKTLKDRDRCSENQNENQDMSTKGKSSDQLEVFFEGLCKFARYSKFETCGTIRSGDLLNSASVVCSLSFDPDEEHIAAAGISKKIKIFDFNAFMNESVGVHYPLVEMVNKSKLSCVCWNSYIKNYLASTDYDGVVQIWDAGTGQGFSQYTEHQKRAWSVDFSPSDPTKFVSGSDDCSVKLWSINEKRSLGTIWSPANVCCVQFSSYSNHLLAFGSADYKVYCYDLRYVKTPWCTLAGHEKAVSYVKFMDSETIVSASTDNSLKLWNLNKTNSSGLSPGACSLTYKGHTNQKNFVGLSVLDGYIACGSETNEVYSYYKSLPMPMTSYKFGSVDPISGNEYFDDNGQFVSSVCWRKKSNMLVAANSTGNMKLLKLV
B2: Cryptochrome-2 (Arabidopsis thaliana (Mouse-ear cress)), Q96524 (parent)
chain: B1 chain
partner: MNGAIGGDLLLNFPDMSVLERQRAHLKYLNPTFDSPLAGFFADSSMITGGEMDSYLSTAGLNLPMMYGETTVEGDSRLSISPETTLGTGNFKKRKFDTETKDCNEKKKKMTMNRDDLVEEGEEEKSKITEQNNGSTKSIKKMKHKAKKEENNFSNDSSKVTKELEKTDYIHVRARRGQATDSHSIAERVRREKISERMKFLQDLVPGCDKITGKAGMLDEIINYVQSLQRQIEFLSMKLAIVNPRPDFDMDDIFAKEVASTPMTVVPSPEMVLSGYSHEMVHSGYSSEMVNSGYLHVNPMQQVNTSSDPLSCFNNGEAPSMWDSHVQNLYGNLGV

Variants of: B1
Details: with spa1_arath SPA1, Q9SYX2

| effect of a mutation on the interaction | Variant |
| --- | --- |
| increasing interaction strength | W374A |

Variants of: B2
Details: with bh063_arath BHLH63, Q8GY61

| effect of a mutation on the interaction | Variant |
| --- | --- |
| increasing interaction strength | W374A |
| disrupting interaction strength | D387A |
